Patent publication US7563760 (GENETICS INSTITUTE, dated 2009)
Changes are numbered by the printed parent chain. Values belong to the binder of their own block, whether it stands above or below them.

Assays:
[1] = target: T1, E-selectin expressed on CHO cells (CHO:E-selectin) (UniProt P16581 22-610, limits assumed); test: plate coated with chimera; adhesion of 3H-labelled CHO:E-selectin cells (FIG. 15)
T1 construct: whole, on cells; also called E-selectin expressing CHO cells; CHO cells which express E-selectin
T1 sequence (looked up): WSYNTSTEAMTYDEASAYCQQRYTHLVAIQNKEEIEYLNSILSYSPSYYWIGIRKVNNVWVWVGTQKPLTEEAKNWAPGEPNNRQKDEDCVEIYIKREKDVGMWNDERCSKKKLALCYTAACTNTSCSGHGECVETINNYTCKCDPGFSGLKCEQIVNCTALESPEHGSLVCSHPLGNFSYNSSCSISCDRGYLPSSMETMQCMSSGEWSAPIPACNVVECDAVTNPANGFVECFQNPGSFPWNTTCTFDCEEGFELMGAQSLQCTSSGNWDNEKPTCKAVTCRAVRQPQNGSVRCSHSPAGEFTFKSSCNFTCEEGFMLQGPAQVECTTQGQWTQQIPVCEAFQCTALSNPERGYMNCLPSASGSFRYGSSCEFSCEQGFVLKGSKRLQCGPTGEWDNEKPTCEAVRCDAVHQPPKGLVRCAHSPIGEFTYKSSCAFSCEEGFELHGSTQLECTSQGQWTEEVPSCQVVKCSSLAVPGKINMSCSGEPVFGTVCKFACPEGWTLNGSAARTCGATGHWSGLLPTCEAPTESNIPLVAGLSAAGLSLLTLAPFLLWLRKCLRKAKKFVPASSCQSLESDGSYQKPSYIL
Procedure: Quantitative adhesion of CHO:P-selectin, CHO:E-selectin and CHO:L-selectin expressing cells was performed as described in Example 4(c), with the following modifications: COS cell and antibodies were omitted. Instead, 48-well microtiter plates (Costar) were coated for 16 hours at 4° C. with varying quantities of protein A-purified soluble PSGL-1/Fc chimeras. The unbound material was removed and the coated wells were treated with Hank's buffered saline (HBS) with 1 mg/ml BSA and 2 mM CaCl_2 for 1 hour at 4° C. Tritium labeled CHO selectin expressing cells were added and binding quantitated as described in Example 4(c).

[2] = target: T2, chimeric protein comprising the extracellular domain of human E-selectin and the Fc portion of human IgG1 … (human, UniProt P16581 22-556); test: affinity precipitation from 35S-labelled COS membrane lysates (FIG. 29A)
T2 construct: extracellular domain; Built analogously to LEC-γ1; also called soluble E-selectin chimera; immobilized E-selectin; not shown: Fc portion of human IgG1
T2 sequence (looked up): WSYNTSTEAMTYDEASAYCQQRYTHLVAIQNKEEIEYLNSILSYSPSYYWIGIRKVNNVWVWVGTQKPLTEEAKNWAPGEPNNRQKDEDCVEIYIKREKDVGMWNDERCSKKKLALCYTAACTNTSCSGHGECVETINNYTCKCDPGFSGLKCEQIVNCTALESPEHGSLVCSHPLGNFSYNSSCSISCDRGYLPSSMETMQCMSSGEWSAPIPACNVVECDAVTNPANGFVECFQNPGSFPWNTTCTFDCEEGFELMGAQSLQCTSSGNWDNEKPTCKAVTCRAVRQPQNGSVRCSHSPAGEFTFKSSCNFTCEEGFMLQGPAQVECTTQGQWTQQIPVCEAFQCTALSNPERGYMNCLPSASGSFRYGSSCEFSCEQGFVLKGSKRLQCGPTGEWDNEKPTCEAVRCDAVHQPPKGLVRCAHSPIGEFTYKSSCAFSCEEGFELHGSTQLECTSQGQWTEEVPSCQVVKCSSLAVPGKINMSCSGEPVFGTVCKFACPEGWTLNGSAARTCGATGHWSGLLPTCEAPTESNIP
Procedure: (§1) The labeled cells were washed, incubated with EGTA to loosen them from the dish surface, scraped from the dish, pelleted, and suspended in cold 10 mM PIPES buffer, pH 7.5, containing 100 mM KCl, 3 mM NaCl, 3.5 mM MgCl_2, and protease inhibitors (see above). Membrane extraction then was carried out by sonication, low speed centrifugation, high speed centrifugation, and solubilization in membrane lysis buffer as above, for labeled myeloid cells.
(§2) Affinity Precipitations. Membrane extracts were diluted 1:4 or 1:5 with cell lysis buffer or with TBSC buffer (20 mM TrisHCl, 150 mM NaCl, 2 mM CaCl_2, pH 7.5) supplemented with 5 mg/ml bovine serum albumin (approximately 99%, Sigma). Extracts thus diluted to 0.2-0.25% Triton X-100 were incubated with human IgG_1-Protein A Sepharose with end-over-end mixing at 4° C. overnight. […] The resins were washed 5 or more times in buffer containing 0.1-0.5% Triton X-100 until the radioactivity of the wash supernatants was reduced to background level. […]
(§3) COS cells were cotransfected with cDNAs encoding either PSGL-1 or CD43 and either Fuc-TIII or Fuc-TVII. […] The precipitated products were evaluated by SDS-PAGE/autoradiography following their release by EDTA/EGTA (for selectin mediated binding) or by boiling in SDS (for immunoprecipitations).

[3] = target: T3, LEC-γ1, chimeric form of P-selectin conjugated to the Fc portion of a human IgGγ1 (human, UniProt P16109 42-771); test: affinity precipitation from 35S-labelled COS membrane lysates
T3 construct: extracellular domain; Built by known methods (Aruffo et al. 1991), made in CHO DUKX cells; also called P-selectin/IgG chimera; P-selectin/Fc chimera; not shown: Fc portion of a human IgGγ1
T3 sequence (looked up): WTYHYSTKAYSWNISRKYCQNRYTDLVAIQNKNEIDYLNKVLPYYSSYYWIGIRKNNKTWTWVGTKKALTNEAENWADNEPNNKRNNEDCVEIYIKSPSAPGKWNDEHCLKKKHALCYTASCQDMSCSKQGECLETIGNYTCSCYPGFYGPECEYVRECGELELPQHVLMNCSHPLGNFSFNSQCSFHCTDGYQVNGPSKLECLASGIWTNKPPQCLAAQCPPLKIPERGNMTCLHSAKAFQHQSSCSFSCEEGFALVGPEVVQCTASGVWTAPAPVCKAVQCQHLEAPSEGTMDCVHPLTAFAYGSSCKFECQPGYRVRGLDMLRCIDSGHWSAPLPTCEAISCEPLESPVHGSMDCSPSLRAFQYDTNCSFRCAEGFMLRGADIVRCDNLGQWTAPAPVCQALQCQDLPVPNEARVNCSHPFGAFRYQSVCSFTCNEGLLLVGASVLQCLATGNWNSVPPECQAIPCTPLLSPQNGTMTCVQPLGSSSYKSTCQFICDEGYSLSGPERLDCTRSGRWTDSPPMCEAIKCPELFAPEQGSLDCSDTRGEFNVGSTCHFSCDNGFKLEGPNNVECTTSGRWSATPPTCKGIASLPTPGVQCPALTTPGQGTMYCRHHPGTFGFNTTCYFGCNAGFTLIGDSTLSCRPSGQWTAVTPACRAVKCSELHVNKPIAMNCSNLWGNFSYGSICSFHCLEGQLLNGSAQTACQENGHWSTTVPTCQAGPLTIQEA
Procedure: as §1, §2, §3

[4] = target: T4, P-selectin expressed on the surface of CHO cells (CHO:P-selectin cell line) (UniProt P16109 42-830, limits assumed); test: conditioned medium coated on plastic dishes; adhesion of CHO:P-selectin cells
T4 construct: whole, on cells; also called P-selectin expressing CHO cells
T4 sequence (looked up): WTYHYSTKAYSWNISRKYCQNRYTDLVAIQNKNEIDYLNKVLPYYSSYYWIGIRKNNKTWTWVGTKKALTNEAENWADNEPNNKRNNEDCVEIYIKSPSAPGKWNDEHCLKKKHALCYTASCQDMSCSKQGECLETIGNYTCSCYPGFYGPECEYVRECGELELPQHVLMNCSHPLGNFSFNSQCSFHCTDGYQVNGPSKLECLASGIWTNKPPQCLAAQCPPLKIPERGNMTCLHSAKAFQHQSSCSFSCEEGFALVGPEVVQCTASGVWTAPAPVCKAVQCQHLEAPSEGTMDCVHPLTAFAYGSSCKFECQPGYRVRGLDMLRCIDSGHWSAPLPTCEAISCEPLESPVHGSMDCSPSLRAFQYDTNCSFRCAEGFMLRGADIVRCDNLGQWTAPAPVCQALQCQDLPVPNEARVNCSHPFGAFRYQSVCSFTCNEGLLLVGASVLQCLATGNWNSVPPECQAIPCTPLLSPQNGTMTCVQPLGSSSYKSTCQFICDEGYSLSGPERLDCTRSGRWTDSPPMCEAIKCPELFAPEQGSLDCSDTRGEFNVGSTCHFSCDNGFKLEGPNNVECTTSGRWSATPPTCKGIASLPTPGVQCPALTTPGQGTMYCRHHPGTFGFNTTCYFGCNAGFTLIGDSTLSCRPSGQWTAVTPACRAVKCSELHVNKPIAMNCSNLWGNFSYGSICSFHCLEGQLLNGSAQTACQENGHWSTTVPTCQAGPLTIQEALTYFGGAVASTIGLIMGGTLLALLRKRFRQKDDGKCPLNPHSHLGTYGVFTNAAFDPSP
Procedure: COS cells were co-transfected with the pED.sPSL.T7 plasmid of Example 5(C), the pEA.3/4FT cDNA of Example 2, and a plasmid containing the PACE cDNA as set forth in SEQ ID NO:5. A parallel control co-transfection was done using only the pED.sPSL.T7 plasmid and the pEA.3/4FT plasmid. After 45 hours, conditioned medium from these transfected COS cells was coated onto plastic dishes and binding to CHO:P-selectin cells (Example 4) was determined.

binding result [2]: no binding
binding result [3]: no binding
B4: recombinant CD43 (pFCD43) from COS cells co-transfected with Fuc-TVII (other, UniProt P16150 20-400, looked up)
chain: STTAVQTPTSGEPLVSTSEPLSSKMYTTSITSDPKADSTGDQTSALPPSTSINEGSPLWTSIGASTGSPLPEPTTYQEVSIKMSSVPQETPHATSHPAVPITANSLGSHTVTGGTITTNSPETSSRTSGAPVTTAASSLETSRGTSGPPLTMATVSLETSKGTSGPPVTMATDSLETSTGTTGPPVTMTTGSLEPSSGASGPQVSSVKLSTMMSPTTSTNASTVPFRNPDENSRGMLPVAVLVALLAVIVLVALLLLWRRRQKRRTGALVLSRGGKRNGVVDAWAGPAQVPEEGAVTVTVGGSGGDKGSGFPDGEGSSRRPTLTTFFGRRKSRQGSLAMEELKSGSGPSLKGEEEPLVASEDGAVDAPAPDEPEGGDGAAP
modifications: co-expressed with Fuc-TVII
notes: Membrane detergent extract; also called recombinant leukosialin

fold increase in bound CHO:P-selectin cells against P-selectin ligand not co-expressed with PACE [4]: ~2 fold
B5: sPSL.T7 co-expressed with 3/4FT and PACE (PACE-cleaved soluble P-selectin ligand) (ligand, not shown: large carriers)
chain: QATEYEYLDYDFLPETEPPEMLRNSTDTTPLTGPGTPESTTVEPAARRSTGLDAGGAVTELTTELANMGNLSTDSAAMEIQTTQPAATEAQTTPLAATEAQTTRLTATEAQTTPLAATEAQTTPPAATEAQTTQPTGLEAQTTAPAAMEAQTTAPAAMEAQTTPPAAMEAQTTQTTAMEAQTTAPEATEAQTTQPTATEAQTTPLAAMEALSTEPSATEALSMEPTTKRGLFIPFSVSSVTHKGIPMAASNLSV
modifications: glycosylated; co-expressed with 3/4FT
notes: also called PACE-cleaved P-selectin ligand; CP/PSL-T7 (R4.1) product

More lines, now with the values behind:

B1: 148.Fc, P-selectin ligand-IgG chimera with amino acids 42-189 of SEQ ID NO:2 (Fc fusion)
chain: QATEYEYLDYDFLPETEPPEMLRNSTDTTPLTGPGTPESTTVEPAARRSTGLDAGGAVTELTTELANMGNLSTDSAAMEIQTTQPAATEAQTTPLAATEAQTTRLTATEAQTTPLAATEAQTTPPAATEAQTTQPTGLEAQTTAPAAM
modifications: tyrosine residues of the anionic region (46, 48, 51 of SEQ ID NO:2) are the major site of sulfation; glycosylated, co-expressed with 3/4FT
notes: also called pED.148.Fc product; pED.149.Fc; not shown: NotI junction/linker of pED.Fc; Fc region of a human IgG1 from pED.PSL.Fc
binding result [1]: binds

B2: FFFE.148.Fc (Fc fusion)
chain: B1 chain with Y5F, Y7F, Y10F, D11E
modifications: glycosylated, co-expressed with 3/4FT
notes: also called pED.FFFE.148.Fc product; not shown: NotI junction/linker of pED.Fc; Fc region of a human IgG1
binding result [1]: binds

B3: recombinant CD43 (pFCD43) from COS cells co-transfected with Fuc-TIII (other, UniProt P16150 20-400, looked up)
chain: B4 chain
modifications: co-expressed with Fuc-TIII
notes: as for B4
binding result [2]: no binding
binding result [3]: no binding
